Assay results from publication PMC4898720, “NrdR Transcription Regulation: Global Proteome Analysis and Its Role in Escherichia coli Viability and Virulence” (PLoS ONE, 2016).

Molecular target: the molecule itself
Assay: SDS-PAGE of gel filtration fractions with peptide mass fingerprinting; SDS-PAGE of Superdex 200 fractions of un-refolded and refolded NrdR; ~40 kDa band identified by peptide mass fingerprinting; samples boiled 10 min with 5 mM DTT

B1: E. coli NrdR (natural protein, UniProt P0A8D0 1-149, looked up)
chain: MHCPFCFAVDTKVIDSRLVGEGSSVRRRRQCLVCNERFTTFEVAELVMPRVVKSNDVREPFNEEKLRSGMLRALEKRPVSSDDVEMAINHIKSQLRATGEREVPSKMIGNLVMEQLKKLDKVAYIRFASVYRSFEDIKEFGEEIARLED
notes: Transcriptional repressor NrdR of E. coli BW25113, full length ORF cloned between NdeI and XhoI of pET21b; also called EcNrdR; as prepared NrdR; source: E. coli BL21 (DE3), purified (HisTrap Ni column, Superdex 200 gel filtration)
  stoichiometry N: 2
